In patent US20120121688A1, “PREVENTATIVE OR THERAPEUTIC AGENT AND METHOD FOR IMMUNE DISEASE” (Rinken, priority 2006, published 2012):

Legend:
B220+ cells (B cells) = experiment: Cytokine production by whole spleen cells co-cultured with B220+ cells (B cells) from spleen of administered mice (ELISA); assay type: cell-based, BDF1 mice; conditions: B220+ cells from mice given 2 μg α-GalCer/mouse i.p., added to whole spleen cells; FIG. 1
Description: Aqueous α-GalCer or αGC liposome (International Publication WO2005/120574) at 2 μg α-GalCer/mouse was intraperitoneally administered to BDF1 mice, and after 24 hours, spleen was removed. The spleen was homogenized with a slide glass to prepare a cell suspension. Subsequently, anti-CD11c antibody magnetic beads (Miltenyi) were added thereto and CD11c^+ cells (DC) were prepared using a magnet. B220^+ cells (B cells) were prepared using anti-B220 mAb magnetic beads (Miltenyi) from the remaining cells which had not been bound to the magnet. Then, 2.5×10^5 whole spleen cells from the normal BDF1 mouse and 1×10^5 DC or 3×10^5 B cells derived from the spleen in the BDF1 mouse administered with aqueous α-GalCer or αGC liposome, suspended in 200 μL of culture medium were added in one well in a 96-well U bottom culture plate, and cultured in an incubator containing 5% CO2 at 37° C. Levels of cytokines, IFN-γ, IL-4 and IL-10 in culture supernatants after 24, 48 and 72 hours were measured by ELISA (FIG. 1).

[1] = system: natural type Cryj1-specific IgE antibody; experiment: Inhibitory capacity of recCryj1/2 protein for in vivo IgE antibody production; design: species or system BDF1 mice; conditions: FIG. 10
Description: BDF1 mice (female, 8 weeks of age, Charles River) were intraperitoneally immunized with 5 μg of purified Cryj1 (natural type Cryj1, Hayashibara Biochemical Laboratories Inc.) derived from the cedar pollen mixed with 2 mg of aluminium hydroxide gel adjuvant (RIKEN) at the start of the experiment (0day) and on the 14th day. On the 50th day, the boost immunization with 1 μg of natural type Cryj1 was given. Meanwhile, the blood samples were collected from the orbital venous plexus on the 14th, 29th and 57th days, and the levels of the natural type Cryj1-specific IgE antibody in serum were measured. Subsequently, on the 99th day, the levels of the natural type Cryj1-specific IgE antibody were measured in all mice, and the mice were divided into three group (5 mice in one group) so that average values of antibody titers were equal among the groups. On the 106th, 113th and 120th days, the recCryj1/2 protein (0.2 μg), the recCryj1/2 protein (2 μg), or saline was administered three times, and further the boost immunization with 1 μg of natural type Cryj1 was given on the 133rd day. The blood samples were collected from the orbital venous plexus on the 140th and 160th days, and the levels of the natural type Cryj1-specific IgE antibody in serum were measured.

[2] = system: natural type Cryj1-specific and recCryj1/2-specific antibody titers; experiment: In vivo antibody production by immunization with recCryj1/2 protein or natural type Cryj1; design: species or system BALB/c×DBA/2F1 (BDF1) mice
Description: BALB/c×DBA/2F1 (BDF1) mice (female, 8 weeks of age, five mice in one group, Charles River) were intraperitoneally immunized with 10 μg of purified Cryj1 (natural type Cryj1, Hayashibara Biochemical Laboratories Inc.) derived from the cedar pollen, or 5 μg or 10 μg of the recCryj1/2 protein mixed with 2 mg of aluminium hydroxide gel adjuvant (RIKEN) at the start of the experiment (0day) and on the 14th day. The boost immunization with 1 μg of natural type Cryj1 or 5 μg or 10 μg of the recCryj1/2 protein was given to each mouse on the 41st day. Furthermore, on the 81st day, the boost immunization with 1 μg of natural type Cryj1 mixed with 2 mg of aluminium hydroxide gel was given to all mice. Blood samples were collected from orbital venous plexus on the 13th, 28th, 55th, 76th and 95th days, and levels of natural type Cryj1-specific antibody titers and recCryj1/2-specific IgE antibody titers were measured. […] The recCryj1/2-specific IgE antibody titers on the 76th day were increased in mice immunized with the recCryj1/2 fusion protein (FIG. 8). Meanwhile, on the 28th and 55th day, natural type Cryj1-specific IgG1 and IgG2a antibody titers were increased in both mice immunized with natural type Cryj1 and recCryj1/2 (FIG. 9).

Molecule	IFN-γ production (B220+ cells (B cells))	IL-4 production (B220+ cells (B cells))	IL-10 production (B220+ cells (B cells))	natural type Cryj1-specific IgE antibody titers versus saline group ([1]; 127th day, 0.2 or 2 μg administered on days 106, 113, 120 to Cryj1-sensitized mice)	natural type Cryj1-specific IgE antibody titers after the boost immunization (133rd day) ([1]; 160th day, increased in saline group)	natural type Cryj1-specific IgG1 antibody titers ([2]; 28th and 55th day, FIG. 9)	natural type Cryj1-specific IgG2a antibody titers ([2]; 28th and 55th day, FIG. 9)	recCryj1/2-specific IgE antibody titers ([2]; 76th day, FIG. 8)	increase of the natural type Cryj1-specific IgE antibody after immunization with adjuvant and natural type Cryj1 on the 81st day ([2]; 94th day, mice earlier immunized with 5 or 10 μg, FIG. 7)	natural type Cryj1-specific IgE antibody titers ([2]; days 28, 55 and 76, i.p. immunization with aluminium hydroxide gel days 0 and 14, boost day 41, FIG. 7)
CCCCCCCCCCCCCCCCCCCCCCCCCC(=O)N[C@@H](CO[C@H]1O[C@H](CO)[C@H](O)[C@H](O)[C@H]1O)[C@H](O)[C@H](O)CCCCCCCCCCCCCC [aqueous α-GalCer, α-galactosylceramide]	not detected	not detected	not detected	–	–	–	–	–	–	–
recCryj1/2 protein: His-tagged recombinant fusion protein of Cryj1 mature protein and Cryj2 mature protein, SEQ ID NO:9 (protein, His tag) MAHHHHHHSAALEVLFQGPSDNPIDSCWRGDSNWAQNRMKLADCAVGFGSSTMGGKGGDLYTVTNSDDDPVNPAPGTLRYGATRDRPLWIIFSGNMNIKLKMPMYIAGYKTFDGRGAQVYIGNGGPCVFIKRVSNVIIHGLHLYGCSTSVLGNVLINESFGVEPVHPQDGDALTLRTATNIWIDHNSFSNSSDGLVDVTLSSTGVTISNNLFFNHHKVMLLGHDDAYSDDKSMKVTVAFNQFGPNCGQRMPRARYGLVHVANNNYDPWTIYAIGGSSNPTILSEGNSFTAPNESYKKQVTIRIGCKTSSSCSNWVWQSTQDVFYNGAYFVSSGKYEGGNIYTKKEAFNVENGNATPQLTKNAGVLTCSLSKRCRKVEHSRHDAINIFNVEKYGAVGDGKHDCTEAFSTAWQAACKKPSAMLLVPGNKKFVVNNLFFNGPCQPHFTFKVDGIIAAYQNPASWKNNRIWLQFAKLTGFTLMGKGVIDGQGKQWWAGQCKWVNGREICNDRDRPTAIKFDFSTGLIIQGLKLMNSPEFHLVFGNCEGVKIIGISITAPRDSPNTDGIDIFASKNFHLQKNTIGTGDDCVAIGTGSSNIVIEDLICGPGHGISIGSLGRENSRAEVSYVHVNGAKFIDTQNGLRIKTWQGGSGMASHIIYENVEMINSENPILINQFYCTSASACQNQRSAVQIQDVTYKNIRGTSATAAAIQLKCSDSMPCKDIKLSDISLKLTSGKIASCLNDNANGYFSGHVIPACKNLSPS	–	–	–	higher	decreased	increased	increased	increased	scarcely observed	not increased at all
